These results are taken from publication PMC8860610, “The fork protection complex recruits FACT to reorganize nucleosomes during replication” (Nucleic Acids Research, 2022).

What all share (conditions): both partners purified
Assay [1] has as its target T1, FACT consisting of Spt16 and GST-tagged Pob3 (Saccharomyces cerevisiae, UniProt P32558 1-1035; Q04636 1-552).
T1 construct: Spt16, subunit of FACT, Saccharomyces cerevisiae; Pob3, subunit of FACT, Saccharomyces cerevisiae; The methods speak of a His-tag cleaved by TEV protease without telling which subunit carried it; also called GST-Pob3Spt16; GST-tagged Pob3-Spt16; source: yeast strain yBS2, galactose-induced, purified (HisTrap, Q column, Superdex 200)
Description: pull-down; 0.5 μM GST-Pob3Spt16 as bait with 1 μM replisome factor, on ice 30 min, immobilised on glutathione agarose 90 min at 4°C, washed with buffer G (50 mM HEPES-NaOH pH 7.6, 300 mM NaCl, 0.05% NP-40), eluted with glutathione, SDS-PAGE.

Assay [2] deals with T2, full-length (fl) FACT (Spt16-Pob3) (Saccharomyces cerevisiae, UniProt P32558 1-1035; Q04636 1-552).
T2 construct: Spt16, subunit of FACT, Saccharomyces cerevisiae; Pob3, subunit of FACT, Saccharomyces cerevisiae; His-tag cleaved by TEV protease; also called yFACT when together with Nhp6; source: yeast strain yBS2, galactose-induced, purified (HisTrap, TEV cleavage, Q column, Superdex 200)
Description: pull-down; 1.5 μM CBP-Csm3Tof1 as bait on Calmodulin Affinity Resin, 3 μM fl FACT as prey, 90 min at 4°C, washed with buffer C (25 mM HEPES-NaOH pH 7.6, 300 mM NaCl, 2 mM CaCl2), eluted with EDTA and EGTA, SDS-PAGE.

For assay [3], the target named is T2, full-length (fl) FACT (Spt16-Pob3). Put plainly: pull-down; 1.5 μM GST fusion proteins (Tof1_N, Tof1_M, Tof1_C, Csm3) as bait on glutathione agarose, 3 μM fl FACT or FACT truncations as prey, 90 min at 4°C, washed with buffer G (300 mM NaCl), eluted with glutathione, SDS-PAGE.
Another assay deals with T3, Spt16 subunit on its own (Saccharomyces cerevisiae, UniProt P32558 1-1035).
T3 construct: Spt16, Saccharomyces cerevisiae, without Pob3; also called Spt16 alone; source: yeast strain yBS2, purified by the same strategy as FACT
The assay is described as above.

B1: Tof1-Csm3 (full-length, CBP-tagged) (complex, Saccharomyces cerevisiae)
chain 1: MSADLQQGTTNAADFSLTVLRARIALLATAIGGPDYTSQIDPPPYKLGDDCLACLKDLKRWFKLVDDQQKRWDVAMAVAEYRILTDDLLPILIDWENKCSLAAKLAKNNPDHEEFRNKAYYDKIALNCLQLLVLMTWPLIVTEQSSSNQITLYGELKKHQLVYKKTILSMESGKVLRAAIRLALDVIKIDRLSRTPRDNMVLKLVLNFFRNVIAIEPGEFTINTKKSMPKKGITSIDTLPPNVSMDDISLNTVISSFHKNKVFGFLLTLTSSLSKEFDQDFINIPLLEIMFYFTKDVNQELLFPRQFETGTHSKVVNKNESSSANNIVTSAGFELSKLLQKEHQMRKNVIKHTSARHSRFGGLLSIQTPDKTRLTVSGSQALVDEKIALQKLDDSKKWNKRIIKKHQSVAAEGLPNSLLNSQTGKAIFFTESNGKHFKEFINNFIDSGFNILLHSVTNYFTTEQDRMVTLEQVEYLLFFAWFVKYQLLRSKIDNSADIKQVSEALKEVTFILVSSLLRSAYDLKNWTVTHAGMIAFNELLNLVSRTKAAQEEDSTDIEFIVSRLFSDERIQLLSNLPKIGSKYSLQFMKSCIELTHSVLKVLEQYSDDKTLVIEGKSRRQKKFNISEGDITKLIEEENVDRDEALDILTSSLRSIEVNFQKVQANYMTEPVIETYINFLERFRELEDDSIKKVFSFFHRVFVQAKEQALLFRFDLIILLREMLSPDGLDRMSRSRKYVSQFSDYFLARLKKRLKKSPAWFVGLLFPPLHNSEVGFYQRYGEYNVLNNESMYAAPASQFKPIPDEEALPPSILLDMKYGVLVSTLLDDGKTELLDQLLKHITHTLDIFKSWLTVNVNAGKETVNPPNEYFTLTGVLNNDPIFKDKDYRALLLLIGYSIPRKINEPCFLPGTVEVSDLTVSCELVKKYLSTPFETPNGLPSSSYLLRVRSEKDSFSHNEQDGWEGDDDYDYNDPYIVPDDQILSKSDAAYFKDLDNNASDKLKGTKFSKGIARSKKKDKRKRRKGEAKTNLPMFGDQDDERPQTVRERHGVFSKEFISDSEDDEDLMNPIFFENETYMRWLLDKNNGQLTEDRYIQFAKFAAERMNNGGVVTGDYTSLFGGSIPSIESIRATESSSFAPDKSLISLASHVASEMSIFDVNNNNNNQLSDDDVNSESRNSLGSSQPSNSQNMFQSEVYSRKESTKRSLEASAADESDEDEEAIRLFGKKSRVVLSQGDSDD
chain 2: MDQDFDSLLLGFNDSDSVQKDPTVPNGLDGSVVDPTIADPTAITARKRRPQVKLTAEKLLSDKGLPYVLKNAHKRIRISSKKNSYDNLSNIIQFYQLWAHELFPKAKFKDFMKICQTVGKTDPVLREYRVSLFRDEMGMSFDVGTRETGQDLERQSPMVEEHVTSAEERPIVADSFAQDKRNVNNVDYDNDEDDDIYHLSYRNRRGRVLDERGNNETVLNNVVPPKEDLDALLKTFRVQGPVGLEENEKKLLLGWLDAHRKMEKGSMTEEDVQLIQSLEEWEMNDIEGQHTHYDLLPGGDEFGVDQDELDAMKEMGF
notes: Tof1, subunit of the fork protection complex, Saccharomyces cerevisiae (1238 aa by the printed truncation limits); Csm3, subunit of the fork protection complex, Saccharomyces cerevisiae; also called CBP-Csm3Tof1; CBP-tagged Csm3-Tof1
In the case of B1, the binding result in assay [1] and in assay [2] was “binds” throughout.

B2: GST-tagged Tof1_C (938-1238 aa) (domain or fragment, Saccharomyces cerevisiae, UniProt P53840 938-1238, looked up)
chain: PSSSYLLRVRSEKDSFSHNEQDGWEGDDDYDYNDPYIVPDDQILSKSDAAYFKDLDNNASDKLKGTKFSKGIARSKKKDKRKRRKGEAKTNLPMFGDQDDERPQTVRERHGVFSKEFISDSEDDEDLMNPIFFENETYMRWLLDKNNGQLTEDRYIQFAKFAAERMNNGGVVTGDYTSLFGGSIPSIESIRATESSSFAPDKSLISLASHVASEMSIFDVNNNNNNQLSDDDVNSESRNSLGSSQPSNSQNMFQSEVYSRKESTKRSLEASAADESDEDEEAIRLFGKKSRVVLSQGDSDD
notes: Tof1, Saccharomyces cerevisiae, residues 938-1238, codon optimized for bacteria; Cloned into a pET GST-His6-TEV vector; no cleavage is described; source: E. coli BL21 (DE3) codon plus RIL, purified (GSTrap, Q column, Superdex 200)
As to B2, the binding result (in assay [3]; in the assay with Spt16 subunit on its own) was “binds” in each case.
